Results published in US20170281764A1 (JN BIOSCIENCES, published 2017).

Target: T1, His-tagged soluble recombinant human TIGIT (Cat # TIT-H52H3; Acro Biosystems) (human, UniProt Q495A1 22-141)
T1 construct: Bought reagent; not shown: His tag
T1 sequence (looked up): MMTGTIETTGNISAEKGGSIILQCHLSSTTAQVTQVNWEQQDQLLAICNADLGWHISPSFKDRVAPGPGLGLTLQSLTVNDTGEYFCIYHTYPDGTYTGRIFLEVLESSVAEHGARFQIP
Test: SPR (BioRad ProteOn XPR36), antibody captured by anti-human IgG, soluble TIGIT as analyte, 25 °C, 1:1 model
Procedure: Biosensor studies for HuTIG1-IgG1.AA were run on a BioRad ProteOn XPR36 system in 10 mM HEPES, 150 mM NaCl, pH 7.4, 0.005% Tween-20 and 0.2 mg/ml BSA at 25° C. HuTIG1-IgG1.AA was diluted to 3.7, 1.2 and 0.4 nM and captured for 5 minutes onto a GLM sensor chip coated with ˜10,000 RU of GE's anti-human IgG antibody. His-tagged soluble recombinant human TIGIT (Cat # TIT-H52H3; Acro Biosystems, Newark, Del.) was tested at 100 nM as the highest concentration in a 3-fold dilution series down to 1.2 nM. The data from the three different density antibody surfaces were globally fit to a 1:1 interaction model using a local Rmax.

B1: HuTIG1-IgG1.AA (humanized IgG1/kappa form of TIG1, L234A/L235A) (antibody)
heavy: not shown
light: DIQMTQSPSSLSASVGDRVTITCRASKSISKYLAWYQQKPGKAPKLLIYSGSTLQSGVPSRFSGSGSGTDFTLTISSLQPEDFATYYCQQHNEYPWTFGGGTKVEIKRTVAAPSVFIFPPSDEQLKSGTASVVCLLNNFYPREAKVQWKVDNALQSGNSQESVTEQDSKDSTYSLSSTLTLSKADYEKHKVYACEVTHQGLSSPVTKSFNRGEC
notes: Mature full chains; also called humanized TIG1
Kd: 0.925 nM | koff: 0.000409 s⁻¹ | kon: 442000 M⁻¹ s⁻¹
